Legend:
[1] = molecular target: T1, human GPRC5D (hGPRC5D) on cells (human, UniProt Q9NZD1 1-345); assay: flow cytometry, NCI-H929 cells naturally expressing GPRC5D
T1 construct: whole, on cells; also called HEK293-hGPRC5D; CHOS-hGPRC5D

[2] = molecular target: T1, human GPRC5D (hGPRC5D) on cells; assay: flow cytometry, RPMI-8226 cells naturally expressing GPRC5D
[3] = molecular target: T1, human GPRC5D (hGPRC5D) on cells; assay: flow cytometry, MM.1R cells naturally expressing GPRC5D

T1 sequence (Q9NZD1 whole entry): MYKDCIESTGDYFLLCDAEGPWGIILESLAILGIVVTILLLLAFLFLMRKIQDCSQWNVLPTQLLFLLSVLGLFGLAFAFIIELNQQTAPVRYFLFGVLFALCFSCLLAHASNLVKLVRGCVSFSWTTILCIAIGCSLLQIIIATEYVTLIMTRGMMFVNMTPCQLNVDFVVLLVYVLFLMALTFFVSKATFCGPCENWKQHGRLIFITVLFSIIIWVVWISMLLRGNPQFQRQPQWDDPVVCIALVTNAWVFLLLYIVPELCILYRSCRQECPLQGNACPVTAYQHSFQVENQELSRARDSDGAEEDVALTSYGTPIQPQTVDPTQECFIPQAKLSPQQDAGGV

EC50 [1]: 9.52 µg/mL
EC50 [2]: 14.3 µg/mL
EC50 [3]: 7.2 µg/mL
B1: GC5B596 (antibody, V domains shown)
VH: QVQLVQSGAEVKKPGASVKVSCKASGYSFTGYTMNWVRQAPGQGLEWMGLINPYNSDTNYAQKLQGRVTMTTDTSTSTAYMELRSLRSDDTAVYYCARVALRVALDYWGQGTLVTVSS
VL: DIQMTQSPSSLSASVGDRVTITCKASQNVATHVGWYQQKPGKAPKRLIYSASYRYSGVPSRFSGSGSGTEFTLTISNLQPEDFATYYCQQYNRYPYTFGQGTKLEIKR
